In the test the target is MVV IN construct spanning the C-terminal domain (CTD), as crystallised (maedi-visna virus (MVV)). Briefly: crystal structure.

The substance “MVV IN construct spanning the C-terminal domain (CTD), as crystallised (domain or fragment)” gave a stoichiometry N of 2.
